Results as given in PMC10083269, “Basic characterization of antibodies targeting receptors of the tumor necrosis factor receptor superfamily” (Frontiers in Immunology, 2023).
Values belong to the binder of their own block, whether it stands above or below them.

Key:
[1] = molecular target: T1, TNFR2(ed)-CRD1-4-GpL (Homo sapiens, point mutant); test: cell-free binding of GpL-tagged receptor fragments to plate-captured antibody; plates coated with 1 µg/ml protein G, antibody (1 µg/ml) captured 1 h at 37°C, 500 ng/ml TNFR2-GpL fusion proteins added in medium for 2 h at 37°C, well-associated luminescence; irrelevant IgG1 wells subtracted; details: partners not purified
T1 construct: TNFR2, CRD1-CRD4 of the ectodomain (stalk region lacking); also called GpL-tagged deletion mutant of the TNFR2 ectodomain lacking the stalk region; source: HEK293T, transient transfection (PEI); not shown: GpL (Gaussia princeps luciferase), C-terminal, kept
T1 chain: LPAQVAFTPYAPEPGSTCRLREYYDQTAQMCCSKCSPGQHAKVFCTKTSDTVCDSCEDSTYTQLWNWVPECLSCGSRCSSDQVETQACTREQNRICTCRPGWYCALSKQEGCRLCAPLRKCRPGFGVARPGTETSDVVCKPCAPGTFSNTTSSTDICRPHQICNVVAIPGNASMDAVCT

[2] = molecular target: T2, TNFR2(ed)-CRD1-3-GpL (Homo sapiens, point mutant); test: as above; details: partners not purified
T2 construct: TNFR2, CRD1-CRD3 of the ectodomain; also called GpL-tagged deletion mutant of the TNFR2 ectodomain lacking the stalk region + CRD4; source: HEK293T, transient transfection (PEI); not shown: GpL (Gaussia princeps luciferase), C-terminal, kept
T2 chain: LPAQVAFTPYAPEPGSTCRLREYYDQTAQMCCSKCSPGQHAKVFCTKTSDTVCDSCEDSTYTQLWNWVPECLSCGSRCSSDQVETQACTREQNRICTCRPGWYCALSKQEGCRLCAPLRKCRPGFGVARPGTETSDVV

[3] = molecular target: T3, TNFR2(ed)-CRD1-2-GpL (Homo sapiens, point mutant); test: as above; details: partners not purified
T3 construct: TNFR2, CRD1-CRD2 of the ectodomain; also called GpL-tagged deletion mutant of the TNFR2 ectodomain lacking the stalk region + CRDs 3 and 4; source: HEK293T, transient transfection (PEI); not shown: GpL (Gaussia princeps luciferase), C-terminal, kept
T3 chain: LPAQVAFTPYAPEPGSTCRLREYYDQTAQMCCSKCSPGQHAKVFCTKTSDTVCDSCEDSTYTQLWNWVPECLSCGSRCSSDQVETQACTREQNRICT

[4] = molecular target: T4, TNFR2(ed)-CRD1-GpL (Homo sapiens, point mutant); test: as above; details: partners not purified
T4 construct: TNFR2, CRD1 of the ectodomain; also called GpL fusion protein of the TNFR2 CRD1 alone; source: HEK293T, transient transfection (PEI); not shown: GpL (Gaussia princeps luciferase), C-terminal, kept
T4 chain: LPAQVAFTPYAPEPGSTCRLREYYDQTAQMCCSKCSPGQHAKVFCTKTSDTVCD

[5] = molecular target: T5, CD40 on HT1080-CD40 cells (Homo sapiens, UniProt P25942); test: cellular equilibrium binding of a GpL (luciferase) fusion protein; adherent HT1080-CD40 cells in 96-well plates (2 x 10^4 cells/well), two-fold dilution series of the GpL antibody fusion protein, 37°C, 30 min to 1 h, five washes with icecold PBS, cell-associated luminescence; non-specific binding from HT1080 cells, from cells blocked with an excess of the GpL-free antibody, or from an irrelevant IgG1-LC:GpL; one …; details: partners not purified
T5 construct: CD40 expressed on HT1080-CD40 transfectants; also called CD40-expressing cells

[6] = molecular target: T6, CD40(ed)-Fc (Homo sapiens, UniProt P25942); test: cell-free equilibrium binding of a GpL (luciferase) fusion protein on coated plates; black high binding 96-well plates coated with 1 µg/ml CD40(ed)-Fc in 0,1 M carbonate buffer at 4°C overnight, blocked with 10% FCS in PBS, two-fold dilution series of the GpL antibody fusion protein, 37°C, 1 h; non-specific binding from irrTNFR(ed)-Fc wells, from wells blocked with an excess of the GpL-free antibody, or from an …; details: one partner purified
T6 construct: extracellular domain of CD40; coated directly on the plate; the legend's footnote says that purified TNFR(ed)-Fc can be coated directly, so it was probably purified; also called Fc fusion protein of the extracellular CD40 domain; source: HEK293T, transient transfection (said of the recombinant proteins in general)

[7] = molecular target: T5, CD40 on HT1080-CD40 cells; test: cellular competition binding with a GpL-TNFL fusion protein; HT1080 transfectants (2 x 10^4 per well) incubated with an excess of the GpL-free antibody (10 µg/ml) or VHH Fc fusion protein for 30 minutes, then GpL-TNFL added at a concentration close to its KD (typically 1 - 100 ng/ml); remaining specific binding against TNFR negative HT1080 cells; details: partners not purified

T5 sequence (P25942 21-277): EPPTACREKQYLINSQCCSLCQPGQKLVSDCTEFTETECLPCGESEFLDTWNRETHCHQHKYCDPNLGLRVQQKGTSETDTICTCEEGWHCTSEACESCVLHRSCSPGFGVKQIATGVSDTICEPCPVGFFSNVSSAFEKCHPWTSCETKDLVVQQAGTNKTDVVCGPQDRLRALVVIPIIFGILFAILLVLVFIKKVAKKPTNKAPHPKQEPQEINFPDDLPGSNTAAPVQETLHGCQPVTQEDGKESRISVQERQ
T6 sequence (P25942 21-193): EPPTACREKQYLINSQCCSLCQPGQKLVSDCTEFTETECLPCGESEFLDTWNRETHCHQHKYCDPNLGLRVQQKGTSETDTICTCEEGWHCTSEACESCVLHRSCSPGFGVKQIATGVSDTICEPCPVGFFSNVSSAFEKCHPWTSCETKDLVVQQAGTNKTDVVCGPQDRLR

binding result [1]: binds
binding result [2]: binds
binding result [3]: binds
binding result [4]: no binding (tested: 500 ng/ml)
B1: anti-TNFR2(68/69)-IgG1(N297A) (antibody, V domains shown)
VH: QVTLKESGPALVKPTQTLTLTCTFSGFSLSTSGMGVGWIRQPPGKALEWLAHIWWDDDKFYNPSLKSRLTISKDTSKNQVVLTMTNMDPVDTATYYCARLTGTRYFDYWGQGTTVTVSS
VL: DVQMTQSPSSLSASVGDRVTITCKASQDINKFIAWYQQKPGKAPKLLIHYTSTLQPGIPSRFSGSGSGRDYTFTISSLQPEDIATYYCLQYGNLWTFGGGTKVEIK
notes: heavy chain of recombinant anti-TNFR2 IgG1(N297A) clone SBT-002 (68/69); light chain of recombinant anti-TNFR2 clone SBT-002 (68/69); IgG1 with N297A in the Fc; also called SBT-002; anti-TNFR2 antibody 68/69; source: HEK293T, transient transfection (PEI)

binding result [5]: binds
binding result [6]: binds
B2: anti-CD40(G28.5)-IgG1-LC : GpL (antibody, V domains shown)
VH: DIQLQQSGPGLVKPSQSLSLTCSVTGYSITTNYNWNWIRQFPGNKLEWMGYIRYDGTSEYTPSLKNRVSITRDTSMNQFFLRLTSVTPEDTATYYCARLDYWGQGTLVTVSS
VL: DIVMTQNPLSLPVSLGDEASISCRSSQSLENSNGNTFLNWFFQKPGQSPQLLIYRVSNRFSGVPDRFSGSGSGTDFTLKISRVEAEDLGVYFCLQVTHVPYTFGGGTTLEIK
notes: heavy chain of recombinant anti-CD40 IgG1 clone G28.5; light chain of recombinant anti-CD40 IgG1 clone G28.5; IgG1; GpL domain on the C-terminus of the light chain; also called GpL-Ab-Fp of the CD40-specific antibody G28.5; source: HEK293T, transient transfection (PEI), cell culture supernatant; not shown: GpL (Gaussia princeps luciferase), C-terminal, kept

binding result [5]: binds
binding result [6]: binds
B3: anti-CD40(G28.5)-IgG1 (antibody, V domains shown)
VH: DIQLQQSGPGLVKPSQSLSLTCSVTGYSITTNYNWNWIRQFPGNKLEWMGYIRYDGTSEYTPSLKNRVSITRDTSMNQFFLRLTSVTPEDTATYYCARLDYWGQGTLVTVSS
VL: DIVMTQNPLSLPVSLGDEASISCRSSQSLENSNGNTFLNWFFQKPGQSPQLLIYRVSNRFSGVPDRFSGSGSGTDFTLKISRVEAEDLGVYFCLQVTHVPYTFGGGTTLEIK
notes: as the heavy chain of m1; as the light chain of m1, without the GpL domain; IgG1; also called GpL-free version of G28.5; source: HEK293T, transient transfection (PEI)

binding result [7]: binds
B4: Anti-CD40(ADC)-IgG1 (antibody, V domains shown)
VH: EVQLLESGGGLVQPGGSLRLSCAASGFTFSTYGMHWVRQAPGKGLEWLSYISGGSSYIFYADSVRGRFTISRDNSENALYLQMNSLRAEDTAVYYCARILRGGSGMDLWGQGTLVTVSS
VL: QSVLTQPPSASGTPGQRVTISCTGSSSNIGAGYNVYWYQQLPGTAPKLLIYGNINRPSGVPDRFSGSKSGTSASLAISGLRSEDEADYYCAAWDKSISGLVFGGGTKLTVL
notes: heavy chain of recombinant anti-CD40 IgG1 clone ADC1013; light chain of recombinant anti-CD40 IgG1 clone ADC1013; IgG1; also called ADC1013; variant of the anti-CD40 antibody ADC-1013; source: HEK293T, transient transfection (PEI)
